The text below walks through data of US20220363770A1 (Amgen, published 2022).

One may read the IC50 as the concentration that inhibits the measured activity by half.

In experiment [1] the target is human CGRP receptor (human, UniProt Q16602 23-461; O60894 27-148). The experiment is described as follows: cell-based or functional assay.
In experiment [2] the target is T1, human PAC1 receptor (human, UniProt P41586 24-468).
T1 sequence: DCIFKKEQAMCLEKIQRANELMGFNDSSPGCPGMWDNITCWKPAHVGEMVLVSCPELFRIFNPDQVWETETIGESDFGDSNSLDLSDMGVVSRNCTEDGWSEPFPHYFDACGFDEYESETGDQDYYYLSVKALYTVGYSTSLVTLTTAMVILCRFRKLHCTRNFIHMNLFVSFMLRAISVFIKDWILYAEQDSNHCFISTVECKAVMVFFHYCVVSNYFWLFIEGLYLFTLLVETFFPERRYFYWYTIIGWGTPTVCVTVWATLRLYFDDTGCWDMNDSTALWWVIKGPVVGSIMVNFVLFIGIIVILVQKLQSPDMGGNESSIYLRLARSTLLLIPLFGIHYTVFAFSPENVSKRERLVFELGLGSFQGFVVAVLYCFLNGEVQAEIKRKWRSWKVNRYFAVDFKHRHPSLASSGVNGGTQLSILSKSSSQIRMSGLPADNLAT
As to the kind of experiment: cell-based or functional assay.

Sequence of human CGRP receptor (Q16602 23-461 limits assumed, chain 1 of 2): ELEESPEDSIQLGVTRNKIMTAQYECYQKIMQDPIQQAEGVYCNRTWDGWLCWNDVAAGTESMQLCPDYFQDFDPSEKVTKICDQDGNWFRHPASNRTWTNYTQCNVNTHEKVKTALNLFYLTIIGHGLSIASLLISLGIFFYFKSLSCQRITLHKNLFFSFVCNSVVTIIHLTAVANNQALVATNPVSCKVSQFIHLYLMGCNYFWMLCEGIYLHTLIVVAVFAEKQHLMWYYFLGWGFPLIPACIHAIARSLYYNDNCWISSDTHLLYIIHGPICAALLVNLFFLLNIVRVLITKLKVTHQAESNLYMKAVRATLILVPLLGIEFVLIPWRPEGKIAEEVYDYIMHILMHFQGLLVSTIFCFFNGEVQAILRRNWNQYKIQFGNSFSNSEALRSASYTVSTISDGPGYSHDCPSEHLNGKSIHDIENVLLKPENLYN
Sequence of human CGRP receptor (O60894 27-148 limits assumed, chain 2 of 2): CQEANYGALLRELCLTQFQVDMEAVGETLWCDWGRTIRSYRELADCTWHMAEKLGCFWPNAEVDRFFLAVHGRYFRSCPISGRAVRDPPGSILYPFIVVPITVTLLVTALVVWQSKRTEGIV

B1: iPS:454783 (bispecific antibody, human IgG1, kappa, lambda, N297G)
light 1: QSVLTQPPSVSAAPGQKVTISCSGSYSNIGRYSVSWYQQLPGTAPKLLIYDNNKRPSGIPDRFSGSKSGTSATLGITGLQTGDEADYYCGTWDSRLSAVVFGGGTKLTVLGQPKAAPSVTLFPPSSEELQANKATLVCLISDFYPGAVTVAWKADSSPVKAGVETTTPSKQSNNKYAAKSYLSLTPEQWKSHRSYSCQVTHEGSTVEKTVAPTECS
heavy 1: QVQLVESGGGVVQPGRSLRLSCAASGFTFSSFGMHWVRQAPGKGLEWVAVISFDGSIKYSVDSVKGRFTISRDNSKNTLFLQMNSLRAEDTAVYYCARDRLNYYESSGYYHYKYYGMAVWGQGTTVTVSSASTKGPSVFPLAPSSKSTSGGTAALGCLVKDYFPEPVTVSWNSGALTSGVHTFPAVLQSSGLYSLESVVTVPSSSLGTQTYICNVNHKPSNTKVDKKVEPKSCDKTHTCPPCPAPELLGGPSVFLFPPKPKDTLMISRTPEVTCVVVDVSHEDPEVKFNWYVDGVEVHNAKTKPCEEQYGSTYRCVSVLTVLHQDWLNGKEYKCKVSNKALPAPIEKTISKAKGQPREPQVYTLPPSRKKMTKNQVSLTCLVKGFYPSDIAVEWESNGQPENNYKTTPPVLKSDGSFFLYSKLTVDKSRWQQGNVFSCSVMHEALHNHYTQKSLSLSPGK
light 2: EIVLTQSPATLSLSPGERATLSCRASKSVGWSLHWYQQKPGQAPRLLIKYASQSLSGIPARFSGSGSGTDFTLTISSLEPEDFAVYYCHQSSRLPFTFGPGTKVDIKRTVAAPSVFIFPPSDEQLKSGTASVVCLLNNFYPREAKVQWKVDNALQSGNSQESVTEQDSKDSTYSLESTLTLSKADYEKHKVYACEVTHQGLSSPVTKSFNRGEC
heavy 2: not shown
Take B1: in experiment [1], the “Fold-improvement over 4E4 Ab” value turned out to be 1.1 fold and the midpoint of inhibition, the IC50, lay at 0.48 nM. Also, in experiment [2], the “Fold-improvement over 29G4v22 Ab” value came to 9.1 fold and half-maximal inhibition (IC50) was put at 0.62 nM.

B2: iPS:454791 (bispecific antibody, human IgG1, kappa, lambda, N297G)
light 1: QSVLTQPPSVSAAPGQKVTISCSGSYSNIGRYSVSWYQQLPGTAPKLLIYDNNKRPSGIPDRFSGSKSGTSATLGITGLQTGDEADYYCGTWDSRLSAVVFGGGTKLTVLGQPKAAPSVTLFPPSSEELQANKATLVCLISDFYPGAVTVAWKADSSPVKAGVETTTPSKQSNNKYAAKSYLSLTPEQWKSHRSYSCQVTHEGSTVEKTVAPTECS
heavy 1: QVQLVESGGGVVQPGRSLRLSCAASGFTFSSFGMHWVRQAPGKGLEWVAVISFDGSIKYSVDSVKGRFTISRDNSKNTLFLQMNSLRAEDTAVYYCARDRLNYYESSGYYHYKYYGMAVWGQGTTVTVSSASTKGPSVFPLAPSSKSTSGGTAALGCLVKDYFPEPVTVSWNSGALTSGVHTFPAVLQSSGLYSLESVVTVPSSSLGTQTYICNVNHKPSNTKVDKKVEPKSCDKTHTCPPCPAPELLGGPSVFLFPPKPKDTLMISRTPEVTCVVVDVSHEDPEVKFNWYVDGVEVHNAKTKPCEEQYGSTYRCVSVLTVLHQDWLNGKEYKCKVSNKALPAPIEKTISKAKGQPREPQVYTLPPSRKKMTKNQVSLTCLVKGFYPSDIAVEWESNGQPENNYKTTPPVLKSDGSFFLYSKLTVDKSRWQQGNVFSCSVMHEALHNHYTQKSLSLSPGK
light 2: EIVLTQSPATLSLSPGERATLSCRASKSVGYSLHWYQQKPGQAPRLLIKYASQSLSGIPARFSGSGSGTDFTLTISSLEPEDFAVYYCHQSSRLPFTFGPGTKVDIKRTVAAPSVFIFPPSDEQLKSGTASVVCLLNNFYPREAKVQWKVDNALQSGNSQESVTEQDSKDSTYSLESTLTLSKADYEKHKVYACEVTHQGLSSPVTKSFNRGEC
heavy 2: not shown
For B2, in experiment [1], the “Fold-improvement over 4E4 Ab” value was determined as 1.2 fold and the “IC50” value is 0.44 nM. In addition, in experiment [2], the “Fold-improvement over 29G4v22 Ab” value stood at 7.1 fold and the “IC50” value stood at 0.79 nM.

B3: iPS:454789 (bispecific antibody, human IgG1, kappa, lambda, N297G)
light 1: QSVLTQPPSVSAAPGQKVTISCSGSYSNIGRYSVSWYQQLPGTAPKLLIYDNNKRPSGIPDRFSGSKSGTSATLGITGLQTGDEADYYCGTWDSRLSAVVFGGGTKLTVLGQPKAAPSVTLFPPSSEELQANKATLVCLISDFYPGAVTVAWKADSSPVKAGVETTTPSKQSNNKYAAKSYLSLTPEQWKSHRSYSCQVTHEGSTVEKTVAPTECS
heavy 1: QVQLVESGGGVVQPGRSLRLSCAASGFTFSSFGMHWVRQAPGKGLEWVAVISFDGSIKYSVDSVKGRFTISRDNSKNTLFLQMNSLRAEDTAVYYCARDRLNYYESSGYYHYKYYGMAVWGQGTTVTVSSASTKGPSVFPLAPSSKSTSGGTAALGCLVKDYFPEPVTVSWNSGALTSGVHTFPAVLQSSGLYSLESVVTVPSSSLGTQTYICNVNHKPSNTKVDKKVEPKSCDKTHTCPPCPAPELLGGPSVFLFPPKPKDTLMISRTPEVTCVVVDVSHEDPEVKFNWYVDGVEVHNAKTKPCEEQYGSTYRCVSVLTVLHQDWLNGKEYKCKVSNKALPAPIEKTISKAKGQPREPQVYTLPPSRKKMTKNQVSLTCLVKGFYPSDIAVEWESNGQPENNYKTTPPVLKSDGSFFLYSKLTVDKSRWQQGNVFSCSVMHEALHNHYTQKSLSLSPGK
light 2: EIVLTQSPATLSLSPGERATLSCRASKSVGWSLHWYQQKPGQAPRLLIKYASQSLSGIPARFSGSGSGTDFTLTISSLEPEDFAVYYCHQSSRLPFTFGPGTKVDIKRTVAAPSVFIFPPSDEQLKSGTASVVCLLNNFYPREAKVQWKVDNALQSGNSQESVTEQDSKDSTYSLESTLTLSKADYEKHKVYACEVTHQGLSSPVTKSFNRGEC
heavy 2: not shown
Turning to B3, in experiment [1], the “Fold-improvement over 4E4 Ab” value worked out at 1.7 fold and half-maximal inhibition (IC50) required 0.29 nM. Also, in experiment [2], the “Fold-improvement over 29G4v22 Ab” value was found to be 5.5 fold and the “IC50” value worked out at 1.19 nM.

B4: iPS:454785 (bispecific antibody, human IgG1, kappa, lambda, N297G)
light 1: QSVLTQPPSVSAAPGQKVTISCSGSYSNIGRYSVSWYQQLPGTAPKLLIYDNNKRPSGIPDRFSGSKSGTSATLGITGLQTGDEADYYCGTWDSRLSAVVFGGGTKLTVLGQPKAAPSVTLFPPSSEELQANKATLVCLISDFYPGAVTVAWKADSSPVKAGVETTTPSKQSNNKYAAKSYLSLTPEQWKSHRSYSCQVTHEGSTVEKTVAPTECS
heavy 1: QVQLVESGGGVVQPGRSLRLSCAASGFTFSSFGMHWVRQAPGKGLEWVAVISFDGSIKYSVDSVKGRFTISRDNSKNTLFLQMNSLRAEDTAVYYCARDRLNYYESSGYYHYKYYGMAVWGQGTTVTVSSASTKGPSVFPLAPSSKSTSGGTAALGCLVKDYFPEPVTVSWNSGALTSGVHTFPAVLQSSGLYSLESVVTVPSSSLGTQTYICNVNHKPSNTKVDKKVEPKSCDKTHTCPPCPAPELLGGPSVFLFPPKPKDTLMISRTPEVTCVVVDVSHEDPEVKFNWYVDGVEVHNAKTKPCEEQYGSTYRCVSVLTVLHQDWLNGKEYKCKVSNKALPAPIEKTISKAKGQPREPQVYTLPPSRKKMTKNQVSLTCLVKGFYPSDIAVEWESNGQPENNYKTTPPVLKSDGSFFLYSKLTVDKSRWQQGNVFSCSVMHEALHNHYTQKSLSLSPGK
light 2: EIVLTQSPATLSLSPGERATLSCRASKSVGWSLHWYQQKPGQAPRLLIKYASQSLSGIPARFSGSGSGTDFTLTISSLEPEDFAVYYCHQSSRLPFTFGPGTKVDIKRTVAAPSVFIFPPSDEQLKSGTASVVCLLNNFYPREAKVQWKVDNALQSGNSQESVTEQDSKDSTYSLESTLTLSKADYEKHKVYACEVTHQGLSSPVTKSFNRGEC
heavy 2: not shown
In the case of B4, in experiment [1], the “Fold-improvement over 4E4 Ab” value came out at 1.1 fold and inhibition was half-maximal at 0.47 nM (IC50). In experiment [2], the “Fold-improvement over 29G4v22 Ab” value stood at 4.6 fold and the half-inhibitory concentration (IC50) was determined as 1.43 nM.

B5: iPS:454787 (bispecific antibody, human IgG1, kappa, lambda, N297G)
light 1: QSVLTQPPSVSAAPGQKVTISCSGSYSNIGRYSVSWYQQLPGTAPKLLIYDNNKRPSGIPDRFSGSKSGTSATLGITGLQTGDEADYYCGTWDSRLSAVVFGGGTKLTVLGQPKAAPSVTLFPPSSEELQANKATLVCLISDFYPGAVTVAWKADSSPVKAGVETTTPSKQSNNKYAAKSYLSLTPEQWKSHRSYSCQVTHEGSTVEKTVAPTECS
heavy 1: QVQLVESGGGVVQPGRSLRLSCAASGFTFSSFGMHWVRQAPGKGLEWVAVISFDGSIKYSVDSVKGRFTISRDNSKNTLFLQMNSLRAEDTAVYYCARDRLNYYESSGYYHYKYYGMAVWGQGTTVTVSSASTKGPSVFPLAPSSKSTSGGTAALGCLVKDYFPEPVTVSWNSGALTSGVHTFPAVLQSSGLYSLESVVTVPSSSLGTQTYICNVNHKPSNTKVDKKVEPKSCDKTHTCPPCPAPELLGGPSVFLFPPKPKDTLMISRTPEVTCVVVDVSHEDPEVKFNWYVDGVEVHNAKTKPCEEQYGSTYRCVSVLTVLHQDWLNGKEYKCKVSNKALPAPIEKTISKAKGQPREPQVYTLPPSRKKMTKNQVSLTCLVKGFYPSDIAVEWESNGQPENNYKTTPPVLKSDGSFFLYSKLTVDKSRWQQGNVFSCSVMHEALHNHYTQKSLSLSPGK
light 2: EIVLTQSPATLSLSPGERATLSCRASKSVGWSLHWYQQKPGQAPRLLIKYASQSLSGIPARFSGSGSGTDFTLTISSLEPEDFAVYYCHQSSRLPFTFGPGTKVDIKRTVAAPSVFIFPPSDEQLKSGTASVVCLLNNFYPREAKVQWKVDNALQSGNSQESVTEQDSKDSTYSLESTLTLSKADYEKHKVYACEVTHQGLSSPVTKSFNRGEC
heavy 2: not shown
Regarding B5, in experiment [1], the “Fold-improvement over 4E4 Ab” value came to 1.8 fold and the midpoint of inhibition, the IC50, lay at 0.27 nM. In experiment [2], the “Fold-improvement over 29G4v22 Ab” value was 9.5 fold and the “IC50” value was 0.69 nM.
